Assay results reported in publication PMC3699067.

Target: T1, DJ-1 (human (endogenous in HEK293T)), Q99497
T1 chain: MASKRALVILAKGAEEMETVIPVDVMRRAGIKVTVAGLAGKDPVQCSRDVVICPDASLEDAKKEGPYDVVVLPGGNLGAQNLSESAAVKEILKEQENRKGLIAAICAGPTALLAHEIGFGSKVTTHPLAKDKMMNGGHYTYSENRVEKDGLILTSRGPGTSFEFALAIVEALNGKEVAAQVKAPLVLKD
Experiment: cross-linking
Details: remark: other sources report otherwise

- stoichiometry N: 2
B1: DJ-1, Q99497 1-189 (natural protein)
chain: MASKRALVILAKGAEEMETVIPVDVMRRAGIKVTVAGLAGKDPVQCSRDVVICPDASLEDAKKEGPYDVVVLPGGNLGAQNLSESAAVKEILKEQENRKGLIAAICAGPTALLAHEIGFGSKVTTHPLAKDKMMNGGHYTYSENRVEKDGLILTSRGPGTSFEFALAIVEALNGKEVAAQVKAPLVLKD
